Experimental data taken from patent publication US20260125472A1 (HEFEI TG IMMUNOPHARMA, published 2026).

What was measured:
Trop2 protein = molecular target: T1, Trop2 protein (UniProt P09758 27-274); test: ELISA, coated Trop2 protein, OD450
T1 construct: Bought recombinant protein; also called Trop2-Biotin protein (biotin-labelled, bridging ELISA)
T1 sequence (looked up): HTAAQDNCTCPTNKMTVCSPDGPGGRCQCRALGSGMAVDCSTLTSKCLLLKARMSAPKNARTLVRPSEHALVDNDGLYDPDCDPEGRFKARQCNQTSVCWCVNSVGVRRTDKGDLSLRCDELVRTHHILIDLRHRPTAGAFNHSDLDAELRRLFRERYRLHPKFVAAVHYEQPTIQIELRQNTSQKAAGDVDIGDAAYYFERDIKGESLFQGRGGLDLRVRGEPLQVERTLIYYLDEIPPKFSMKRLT
Description: In this example, the binding properties of the CD3×Trop2 and CD3×PDL1 bispecific antibody (the production method and the amino acid sequences of the heavy and light chains were shown in Example 1) were detected by using ELISA. The CD3E&D, Trop2, or PDL1 protein was coated onto 96-well plates by inventors, and the strength of the signal after the addition of the antibody was used to determine the binding properties of the antibody and the corresponding protein.
(2) Trop2 protein (purchased from Acro) was diluted to 2 μg/ml with PBS buffer, added to a 96-well plate at a volume of 100 μL/well, and placed at 4° C. overnight. The PBS buffer in the 96-well plate was aspirated, and the plate was washed 6 times with PBST (pH 7.2 PBS containing 0.1% Tween 20) buffer. Then, 200 μL/well PBS/10% BSA was added and incubated at 37° C. for 2 h for blocking. The blocking solution was removed, and the plate was washed six times with PBST. Then, the to-be-tested bispecific antibodies, Cross3×Trop2, Cross303×Trop2, Cross307×Trop2, Cross308×Trop2, Cross309×Trop2, Cross310×Trop2, Cross311×Trop2, Cross312×Trop2, Cross313×Trop2, Cross314×Trop2, Cross316×Trop2, Cross317×Trop2, Cross318×Trop2, Cross323×Trop2, Cross325×Trop2, Cross326×Trop2, and control IgG1LALA (purchased from Bio-Tech), serially diluted with PBST/0.05% BSA, were added at 100 μL/well and incubated at 37° C. for 1 h. The reaction system was removed, and the plate was washed 6 times with PBST. Then, HRP (horseradish peroxidase)-labeled anti-human secondary antibody (Fab specific) (purchased from Sigma) diluted with PBST/0.05% BSA at 100 μL/well. After the plate was washed six times with PBST, TMB (tetramethylbenzidine) was added at 80 μL/well, and incubated at room temperature for 3 min. 4 M sulfuric acid was added at 80 μL/well to terminate the reaction. The absorbance was read at 450 nm using a microplate reader.

CD3 on CD8 T cells = molecular target: T2, CD3 on CD8 T cells (Homo sapiens (Human), UniProt P07766 23-207); test: flow cytometry, CD8 T cells in PBMCs, binding ratio % [panel A]
T2 construct: Native CD3 complex on CD8 T cells among PBMCs; also called T cells (PBMCs gated with anti-human CD8 antibody)
T2 sequence (P07766 23-207 limits assumed): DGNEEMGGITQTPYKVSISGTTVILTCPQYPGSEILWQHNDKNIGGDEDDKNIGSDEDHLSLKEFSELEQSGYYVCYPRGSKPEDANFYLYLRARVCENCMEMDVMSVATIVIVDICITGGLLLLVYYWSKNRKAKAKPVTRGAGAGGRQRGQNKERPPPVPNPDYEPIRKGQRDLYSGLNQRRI

B1: Cross311×Trop2 (bispecific antibody)
scFv: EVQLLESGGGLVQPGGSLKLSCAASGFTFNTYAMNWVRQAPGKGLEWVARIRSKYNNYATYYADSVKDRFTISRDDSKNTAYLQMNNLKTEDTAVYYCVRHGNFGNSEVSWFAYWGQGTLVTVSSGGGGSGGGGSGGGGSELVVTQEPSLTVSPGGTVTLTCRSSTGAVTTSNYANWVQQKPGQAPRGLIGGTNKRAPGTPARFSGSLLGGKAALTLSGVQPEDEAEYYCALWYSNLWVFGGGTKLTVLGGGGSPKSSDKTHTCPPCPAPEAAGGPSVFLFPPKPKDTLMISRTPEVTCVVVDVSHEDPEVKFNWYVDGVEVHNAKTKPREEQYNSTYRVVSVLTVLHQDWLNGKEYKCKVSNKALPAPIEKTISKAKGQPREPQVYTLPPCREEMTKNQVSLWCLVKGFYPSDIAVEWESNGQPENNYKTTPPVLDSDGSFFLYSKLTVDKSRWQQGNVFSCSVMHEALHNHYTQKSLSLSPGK
heavy: QVQLQQSGSELKKPGASVKVSCKASGYTFTNYGMNWVKQAPGQGLKWMGWINTYTGEPTYTDDFKGRFAFSLDTSVSTAYLQISSLKADDTAVYFCARGGFGSSYWYFDVWGQGSLVTVSSASTKGPSVFPLAPSSKSTSGGTAALGCLVKDYFPEPVTVSWNSGALTSGVHTFPAVLQSSGLYSLSSVVTVPSSSLGTQTYICNVNHKPSNTKVDKKVEPKSSDKTHTCPPCPAPEAAGGPSVFLFPPKPKDTLMISRTPEVTCVVVDVSHEDPEVKFNWYVDGVEVHNAKTKPREEQYNSTYRVVSVLTVLHQDWLNGKEYKCKVSNKALPAPIEKTISKAKGQPREPQVCTLPPSREEMTKNQVSLSCAVKGFYPSDIAVEWESNGQPENNYKTTPPVLDSDGSFFLVSKLTVDKSRWQQGNVFSCSVMHEALHNHYTQKSLSLSPGK
light: DIQLTQSPSSLSASVGDRVSITCKASQDVSIAVAWYQQKPGKAPKLLIYSASYRYTGVPDRFSGSGSGTDFTLTISSLQPEDFAVYYCQQHYITPLTFGAGTKVEIKRTVAAPSVFIFPPSDEQLKSGTASVVCLLNNFYPREAKVQWKVDNALQSGNSQESVTEQDSKDSTYSLSSTLTLSKADYEKHKVYACEVTHQGLSSPVTKSFNRGEC
EC50 (read off the curve) (Trop2 protein): ~0.008 µg/mL | EC50 (read off the curve) (CD3 on CD8 T cells): ~0.7 µg/mL
